{
  "source": "IntAct's records for PubMed 28017832",
  "parents": {"B1": {"name": "Vacuolar protein sorting-associated protein 33B (Homo sapiens), Q9H267 (parent)", "chain": "MAFPHRPDAPELPDFSMLKRLARDQLIYLLEQLPGKKDLFIEADLMSPLDRIANVSILKQHEVDKLYKVENKPALSSNEQLCFLVRPRIKNMRYIASLVNADKLAGRTRKYKVIFSPQKFYACEMVLEEEGIYGDVSCDEWAFSLLPLDVDLLSMELPEFFRDYFLEGDQRWINTVAQALHLLSTLYGPFPNCYGIGRCAKMAYELWRNLEEEEDGETKGRRPEIGHIFLLDRDVDFVTALCSQVVYEGLVDDTFRIKCGSVDFGPEVTSSDKSLKVLLNAEDKVFNEIRNEHFSNVFGFLSQKARNLQAQYDRRRGMDIKQMKNFVSQELKGLKQEHRLLSLHIGACESIMKKKTKQDFQELIKTEHALLEGFNIRESTSYIEEHIDRQVSPIESLRLMCLLSITENGLIPKDYRSLKTQYLQSYGPEHLLTFSNLRRAGLLTEQAPGDTLTAVESKVSKLVTDKAAGKITDAFSSLAKRSNFRAISKKLNLIPRVDGEYDLKVPRDMAYVFGGAYVPLSCRIIEQVLERRSWQGLDEVVRLLNCSDFAFTDMTKEDKASSESLRLILVVFLGGCTFSEISALRFLGREKGYRFIFLTTAVTNSARLMEAMSEVKA", "partner": "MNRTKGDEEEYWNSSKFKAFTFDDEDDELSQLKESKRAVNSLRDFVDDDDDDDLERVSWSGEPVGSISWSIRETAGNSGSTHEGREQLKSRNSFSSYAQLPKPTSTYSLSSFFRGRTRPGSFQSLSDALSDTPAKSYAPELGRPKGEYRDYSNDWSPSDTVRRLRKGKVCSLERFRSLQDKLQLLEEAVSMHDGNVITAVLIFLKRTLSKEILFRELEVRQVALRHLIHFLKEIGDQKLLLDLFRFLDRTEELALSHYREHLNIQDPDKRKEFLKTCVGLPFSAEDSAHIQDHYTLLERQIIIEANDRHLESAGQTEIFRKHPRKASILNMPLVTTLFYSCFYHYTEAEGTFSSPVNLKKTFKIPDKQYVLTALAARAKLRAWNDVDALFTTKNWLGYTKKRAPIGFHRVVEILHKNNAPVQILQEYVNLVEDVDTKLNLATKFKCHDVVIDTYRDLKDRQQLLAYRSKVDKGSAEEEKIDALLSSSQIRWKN"}},
  "data": [
    {"variants_of": "B1", "settings": "with spe39_human VIPAS39, Q9H9C1", "values": [
      {"variant": "G131E", "effect of a mutation on the interaction": "decreasing interaction strength"}
    ]}
  ]
}
